# According to the supplement of paper PMC7877785:
# ± gives the uncertainty stated by the source.
# Test: self-splicing fitness, log relative to wild type (ln ratio); higher = more splicing; Tetrahymena group I intron in knt gene, E. coli kanamycin selection, DiMSum; sequences stand for … in CUCUCU…GGAGGGAAAAGUUAUCAGGCAUGCACCUGGUAGCUAGUCUUUAAACCAAUAGAUUGCAUCGGUUUAAAAGGCAAGACCGUCAAAUUGCGGGAAAGGGGUCAACAGCCGUUCAGUACCAAGUCUCAGGGGAAACUUUGAGAUGGCCUUGCAAAGGGUAUGGUAAUAAGCUGACGGACAUGGUCCUAACCACGCAGCCAAGUCCUAAGUCAACAGAUCUUCUGUUGAUAUGGAUGCAGUUCACAGACUAAAUGUCGGUCGGGGAAGAUGUAUUCUUCUCAUAAGAUAUAGUCGGACCUCUCCUUAAUGGGAGCUAGCGGAUGAAGUGAUGCAACACUGGAGCCGCUGGGAACUAAUUUGUAUGCGAAAGUAUAUUGAUUAGUUUUGGAGUACUCGUGGUCG
# Outline: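 Pooled colonies went to amplicon sequencing on an Illumina HiSeq 2500 after six replicate transformations. The plates were LB agar with 100 μg/mL carbenicillin, 50 μM IPTG and 0.2% rhamnose, with or without 25 μg/mL kanamycin, incubated overnight at 37°C or 30°C. The E. coli BL21(DE3) library had all eight P1ex-region intron nucleotides randomised, the intron placed in the knt kanamycin-resistance gene on pET-22b(+). DiMSum fitness is the error-weighted combination of replicate fold changes, kanamycin against none, normalised to wild type.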
Sequence,self-splicing fitness (ln) (30 °C),self-splicing fitness (ln) (37 °C)
GCCUAGCAAUAUUACGCAAG,-3.71 ± 0.47,
GCCUAGCAAUAUUACGCAGU,-1.77 ± 0.13,-0.206 ± 0.12
GCCUAGCAAUAUUACGCAUC,-0.219 ± 0.066,0.571 ± 0.091
GCCUAGCAAUAUUACGCAUG,-4.28 ± 0.36,-1.67 ± 0.15
GCCUAGCAAUAUUACGCCCU,-0.974 ± 0.097,0.335 ± 0.13
GCCUAGCAAUAUUACGCCGC,-2.48 ± 0.36,-1.5 ± 0.34
GCCUAGCAAUAUUACGCCGG,,-3.09 ± 0.37
GCCUAGCAAUAUUACGGAUA,-1.01 ± 0.17,-0.705 ± 0.13
GCCUAGCAAUAUUACGGCAC,-1.31 ± 0.17,-0.195 ± 0.14
GCCUAGCAAUAUUACGGCGG,-3.45 ± 0.24,-2.44 ± 0.35
GCCUAGCAAUAUUACGGCUU,-3.8 ± 0.22,-1.08 ± 0.16
GCCUAGCAAUAUUACGGGCC,-4.2 ± 0.26,-3.41 ± 0.39
GCCUAGCAAUAUUACGGUAC,-2.66 ± 0.15,-0.822 ± 0.13
GCCUAGCAAUAUUACGUGGC,-3.15 ± 0.32,-1.6 ± 0.33
GCCUAGCAAUAUUACGUUCC,-1.1 ± 0.17,0.341 ± 0.19
GCGAAGCAAUAUUACGAAAG,-4.38 ± 0.4,-1.14 ± 0.18
GCGAAGCAAUAUUACGAGAG,-3.95 ± 0.34,-1.91 ± 0.2
GCGAAGCAAUAUUACGAGUU,-3.19 ± 0.2,-2.16 ± 0.28
GCGAAGCAAUAUUACGAUGU,-2.82 ± 0.15,-1.42 ± 0.12
GCGAAGCAAUAUUACGCCAA,,-1.82 ± 0.39
GCGAAGCAAUAUUACGCCGG,-1.91 ± 0.47,-0.944 ± 0.47
GCGAAGCAAUAUUACGCCUC,-2.7 ± 0.42,
GCGAAGCAAUAUUACGCUUG,-1.45 ± 0.26,-1.56 ± 0.35
GCGAAGCAAUAUUACGGACA,-0.834 ± 0.13,-0.85 ± 0.13
GCGAAGCAAUAUUACGGAUU,-1.33 ± 0.13,-1.17 ± 0.15

Sequence,self-splicing fitness (ln) (30 °C),self-splicing fitness (ln) (37 °C)
GCGAAGCAAUAUUACGGUAC,-2.89 ± 0.17,-1.2 ± 0.15
GCGAAGCAAUAUUACGUAGU,-3.8 ± 0.34,-2.13 ± 0.18
GCGAAGCAAUAUUACGUAUC,-3.34 ± 0.3,-0.83 ± 0.14
GCGAAGCAAUAUUACGUCUU,-2.56 ± 0.15,-2.06 ± 0.13
GCGCAGCAAUAUUACGAAAU,-0.982 ± 0.075,-0.192 ± 0.095
GCGCAGCAAUAUUACGAACU,0.116 ± 0.11,0.476 ± 0.13
GCGCAGCAAUAUUACGAAGA,-1.64 ± 0.13,-0.808 ± 0.12
GCGCAGCAAUAUUACGACGU,-1.69 ± 0.091,-1.13 ± 0.13
GCGCAGCAAUAUUACGACUA,-0.643 ± 0.12,0.154 ± 0.11
GCGCAGCAAUAUUACGAGAU,-1.85 ± 0.089,-0.7 ± 0.11
GCGCAGCAAUAUUACGAUAC,-1.4 ± 0.081,-1.49 ± 0.11
GCGCAGCAAUAUUACGCAUU,-1.4 ± 0.077,-0.154 ± 0.1
GCGCAGCAAUAUUACGCGCC,-3.43 ± 0.26,-2.41 ± 0.39
GCGCAGCAAUAUUACGCGCU,,-1.41 ± 0.28
GCGCAGCAAUAUUACGGCAC,-0.436 ± 0.11,-0.634 ± 0.13
GCGCAGCAAUAUUACGGCAG,-3.47 ± 0.15,-2.85 ± 0.19
GCGCAGCAAUAUUACGGCUA,-0.44 ± 0.092,0.0852 ± 0.097
GCGCAGCAAUAUUACGGGUU,-1.71 ± 0.042,-0.67 ± 0.053
GCGCAGCAAUAUUACGGUAU,-0.825 ± 0.039,-0.0516 ± 0.054
GCGCAGCAAUAUUACGUACU,-1.32 ± 0.072,-0.505 ± 0.092
GCGCAGCAAUAUUACGUCCU,-0.435 ± 0.12,0.126 ± 0.14
GCGCAGCAAUAUUACGUCGC,-2.27 ± 0.14,-2.2 ± 0.27
GCGCAGCAAUAUUACGUUAC,-2.71 ± 0.14,-1.12 ± 0.14
GCGGAGCAAUAUUACGAACA,-2.71 ± 0.45,-2.78 ± 0.43
GCGGAGCAAUAUUACGACGG,-2.27 ± 0.19,-1.13 ± 0.2

Sequence,self-splicing fitness (ln) (30 °C),self-splicing fitness (ln) (37 °C)
GCGGAGCAAUAUUACGAGUU,-3.16 ± 0.31,-1.91 ± 0.25
GCGGAGCAAUAUUACGAUAG,-2.96 ± 0.38,-2.67 ± 0.44
GCGGAGCAAUAUUACGAUAU,-2.17 ± 0.14,-2.02 ± 0.18
GCGGAGCAAUAUUACGCAAG,-2.73 ± 0.38,-2.3 ± 0.31
GCGGAGCAAUAUUACGCAAU,-3.51 ± 0.43,
GCGGAGCAAUAUUACGCGAA,,-0.648 ± 0.23
GCGGAGCAAUAUUACGCGCU,-1.88 ± 0.4,
GCGGAGCAAUAUUACGCGGU,-1.68 ± 0.44,
GCGGAGCAAUAUUACGCUUC,-2.09 ± 0.38,
GCGGAGCAAUAUUACGCUUU,-3.1 ± 0.31,-3.21 ± 0.28
GCGGAGCAAUAUUACGGACC,-1.77 ± 0.34,
GCGGAGCAAUAUUACGGACG,-3.15 ± 0.47,-2.33 ± 0.42
GCGGAGCAAUAUUACGGCAU,-1.88 ± 0.12,-0.979 ± 0.13
GCGGAGCAAUAUUACGGCCU,,0.0586 ± 0.34
GCGGAGCAAUAUUACGGCGC,-2.22 ± 0.36,
GCGGAGCAAUAUUACGGGCU,-2.38 ± 0.36,
GCGGAGCAAUAUUACGGUUC,,-1.69 ± 0.4
GCGGAGCAAUAUUACGUAAU,-1.52 ± 0.15,-1.73 ± 0.24
GCGGAGCAAUAUUACGUCUG,-3.82 ± 0.42,-2.44 ± 0.41
GCGGAGCAAUAUUACGUGGC,-2.82 ± 0.18,-3.01 ± 0.43
GCGGAGCAAUAUUACGUGUA,-3.49 ± 0.37,-2.58 ± 0.38
GCGGAGCAAUAUUACGUGUU,-2.9 ± 0.31,-1.47 ± 0.18
GCGGAGCAAUAUUACGUUAC,-1.51 ± 0.22,-2.36 ± 0.39
GCGGAGCAAUAUUACGUUAG,-2.8 ± 0.23,-1.99 ± 0.35
GCGGAGCAAUAUUACGUUUU,-3.29 ± 0.21,-2.02 ± 0.21

Sequence,self-splicing fitness (ln) (30 °C),self-splicing fitness (ln) (37 °C)
GCGUAGCAAUAUUACGACUC,0.552 ± 0.19,-0.215 ± 0.26
GCGUAGCAAUAUUACGAGAC,-1.13 ± 0.2,-2.37 ± 0.39
GCGUAGCAAUAUUACGAGCU,-1.5 ± 0.12,-1.66 ± 0.23
GCGUAGCAAUAUUACGAUGA,-0.962 ± 0.13,0.16 ± 0.14
GCGUAGCAAUAUUACGCAGC,-3.61 ± 0.47,-2.75 ± 0.38
GCGUAGCAAUAUUACGCCAA,,-2.7 ± 0.48
GCGUAGCAAUAUUACGCUCA,,-0.161 ± 0.23
GCGUAGCAAUAUUACGGAUC,-0.345 ± 0.079,0.215 ± 0.088
GCGUAGCAAUAUUACGGCGA,-0.0106 ± 0.13,0.378 ± 0.16
GCGUAGCAAUAUUACGGGCU,-3.57 ± 0.32,-1.62 ± 0.2
GCGUAGCAAUAUUACGUAAG,-3.03 ± 0.23,-2.66 ± 0.25
GCGUAGCAAUAUUACGUGGC,-3.48 ± 0.23,-2.75 ± 0.31
GCUAAGCAAUAUUACGAAAA,-1.27 ± 0.15,-1.6 ± 0.17
GCUAAGCAAUAUUACGAAAC,-1.17 ± 0.14,-0.452 ± 0.2
GCUAAGCAAUAUUACGAAAG,-0.97 ± 0.14,-1.09 ± 0.21
GCUAAGCAAUAUUACGAAGA,-0.925 ± 0.087,-0.138 ± 0.098
GCUAAGCAAUAUUACGAAGG,-1.85 ± 0.11,-0.743 ± 0.16
GCUAAGCAAUAUUACGACCG,-0.349 ± 0.17,0.0102 ± 0.24
GCUAAGCAAUAUUACGAUGU,-1.19 ± 0.072,-0.496 ± 0.087
GCUAAGCAAUAUUACGCCGA,-2.09 ± 0.33,-1.28 ± 0.2
GCUAAGCAAUAUUACGGAGA,-3.1 ± 0.21,-2.49 ± 0.23
GCUAAGCAAUAUUACGGAUA,-2.45 ± 0.24,-0.375 ± 0.18
GCUAAGCAAUAUUACGGCAC,-1.31 ± 0.19,-0.55 ± 0.2
GCUAAGCAAUAUUACGGUAC,-1.47 ± 0.1,-1.65 ± 0.2
GCUAAGCAAUAUUACGGUGG,-3.83 ± 0.23,-1.82 ± 0.21
